For experiment [1], the target named is human IL-12 receptor (human, UniProt P42701 24-662; Q99665 24-862). The experiment can be described thus: cell-based or functional assay.
In experiment [2] the target is T1, human OX40 (human, UniProt P43489 29-277).
T1 construct: whole, on cells; also called hOX40
T1 sequence (looked up): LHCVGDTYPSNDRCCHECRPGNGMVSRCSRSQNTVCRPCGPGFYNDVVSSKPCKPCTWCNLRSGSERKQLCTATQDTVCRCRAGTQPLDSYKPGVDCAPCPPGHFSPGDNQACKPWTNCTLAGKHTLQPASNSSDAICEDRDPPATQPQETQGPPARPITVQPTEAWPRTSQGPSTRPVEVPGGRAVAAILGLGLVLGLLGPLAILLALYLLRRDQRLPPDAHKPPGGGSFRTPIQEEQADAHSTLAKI
Nature of the experiment: flow cytometry on hOX40-Jurkat-NF-κB cells. As to the method: Stained hOX40-Jurkat-NF-κB and cOX40-Jurkat-NF-κB cells were analyzed by flow cytometry using a CytoFLEX (Beckman Coulter), the results of which are depicted in FIGS. 78 and 79, respectively, and summarized in FIG. 80.
Binding of each of the sequence optimized IL-12 ABD fusion proteins to hOX40-Jurkat-NF-κB cells was performed as described in Example 16, the results of which are depicted in FIG. 87 and summarized in FIG. 88.
(In flow cytometry, cells or beads pass a laser one at a time.)

Sequence of human IL-12 receptor (Q99665 24-862 limits assumed, chain 2 of 2, other chains not shown): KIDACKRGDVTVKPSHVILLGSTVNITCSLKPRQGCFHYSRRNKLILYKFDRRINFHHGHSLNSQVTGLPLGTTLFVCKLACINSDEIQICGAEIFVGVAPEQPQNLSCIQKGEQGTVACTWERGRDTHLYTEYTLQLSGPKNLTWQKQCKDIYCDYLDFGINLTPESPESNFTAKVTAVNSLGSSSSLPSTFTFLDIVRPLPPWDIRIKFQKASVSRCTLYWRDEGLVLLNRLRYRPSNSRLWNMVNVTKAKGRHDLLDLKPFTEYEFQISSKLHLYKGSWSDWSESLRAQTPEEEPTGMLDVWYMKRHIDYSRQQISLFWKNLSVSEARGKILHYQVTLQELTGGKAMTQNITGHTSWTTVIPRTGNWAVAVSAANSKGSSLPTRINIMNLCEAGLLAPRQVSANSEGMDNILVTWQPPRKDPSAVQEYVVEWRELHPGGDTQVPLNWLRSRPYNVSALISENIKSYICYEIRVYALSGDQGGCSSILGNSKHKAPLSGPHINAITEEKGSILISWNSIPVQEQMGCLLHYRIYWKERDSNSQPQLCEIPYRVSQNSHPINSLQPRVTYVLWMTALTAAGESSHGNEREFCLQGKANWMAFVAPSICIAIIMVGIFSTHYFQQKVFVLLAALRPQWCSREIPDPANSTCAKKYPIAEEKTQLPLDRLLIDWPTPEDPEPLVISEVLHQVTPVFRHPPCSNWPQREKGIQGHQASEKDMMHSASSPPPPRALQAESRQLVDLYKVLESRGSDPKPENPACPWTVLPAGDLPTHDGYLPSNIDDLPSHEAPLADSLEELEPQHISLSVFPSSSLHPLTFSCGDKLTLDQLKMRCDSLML

B1: IL-12 Fc mut9 (Fc fusion)
chain: RNLPVATPDPGMFPCLHHSQNLLRAVSNMLQKARQTLEFPPCTSEEIDHEDITKDKTSTVEACLPLELTKNESCLNSRETSFITNGSCLASRKTSFMMALCLSSIYEDLKMYQVEFKTMNAKLLMDPKRQIFLDQNMLAVIDELMQALNFNSETVPQKSSLEEPDFYATKIKLCILLHAFRIRAVTIDRVMSYLNAS
Regarding B1, the “SEAP of CCR8-HEK-Blue IL-12 reporter cells (OD 650 nm), EC50” value in experiment [1] was found to be 12.5 nM.

B2: commercially available recombinant IL-12 (rIL-12, Miltenyi) (ligand)
chain 1: RNLPVATPDPGMFPCLHHSQNLLRAVSNMLQKARQTLEFYPCTSEEIDHEDITKDKTSTVEACLPLELTKNESCLNSRETSFITNGSCLASRKTSFMMALCLSSIYEDLKMYQVEFKTMNAKLLMDPKRQIFLDQNMLAVIDELMQALNFNSETVPQKSSLEEPDFYKTKIKLCILLHAFRIRAVTIDRVMSYLNAS
chain 2: IWELKKDVYVVELDWYPDAPGEMVVLTCDTPEEDGITWTLDQSSEVLGSGKTLTIQVKEFGDAGQYTCHKGGEVLSHSLLLLHKKEDGIWSTDILKDQKEPKNKTFLRCEAKNYSGRFTCWWLTTISTDLTFSVKSSRGSSDPQGVTCGAATLSAERVRGDNKEYEYSVECQEDSACPAAEESLPIEVMVDAVHKLKYENYTSSFFIRDIIKPDPPKNLQLKPLKNSRQVEVSWEYPDTWSTPHSYFSLTFCVQVQGKSKREKKDRVFTDKTSATVICRKNASISVRAQDRYYSSSWSEWASVPCS
Turning to B2, in experiment [1], the “SEAP of CCR8-HEK-Blue IL-12 reporter cells (OD 650 nm), EC50” value is 0.17 nM.

B3: mono-mut23-20E5_V5 (Fc fusion)
chain: IWELKKDVYVVELDWYPDAPGEMVVLTCDTPEEDGITWTLDQSSEVLGSGKTLTIQVKEFGDAGQYTCHKGGEVLSHSLLLLHKKEDGIWSTDILKDQKEPKNKTFLRCEAKNYSGRFTCWWLTTISTDLTFSVKSSRGSSDPQGVTCGAATLSAERVRGDNKEYEYSVECQEDSACPAAEESLPIEVMVDAVHKLKYENYTSSFFIRDIIKPDPPKNLQLKPLKNSRQVEVSWEYPDTWSTPHSYFSLTFSVQVQGKSKREKKDRVFTDKTSATVICRKNASISVRAQDRYYSSSWSEWASVPCSGGGGSGGGGSGGGGSGGGGSGGGGSRNLPVATPDPGMFPCLHHSQNLLRAVSNMLQKARQTLEFSPCTSEEIDHEDITKDKTSTVEACLPLELTKNESCLNSRETSFITNGSCLASRKTSFMMALCLSSIYEDLKMYQVEFKTMNAKLLMDPKRQIFLDQNMLAVIDELMQALNFNSETVPQKSSLEEPDFYKTAIKLCILLHAFRIRAVTIDRVMSYLNASGGGGSGGGGSEPKSSDKTHTCPPCPAPEFEGGPSVFLFPPKPKDTLMISRTPEVTCVVVDVSHEDPEVKFNWYVDGVEVHNAKTKPREEQYNSTYRVVSVLTVLHQDWLNGKEYKCKVSNKALPASIEKTISKAKGQPREPQVCTLPPSRDELTKNQVSLSCAVKGFYPSDIAVEWESNGQPENNYKTTPPVLDSDGSFFLVSKLTVDKSRWQQGNVFSCSVMHEALHNHYTQKSLSLSPG
heavy: QVQLVQSGAEVKKPGASVKVSCKASGYTFTSYVMHWVRQAPGQRLEWIGYINPYNAGTKYNEKFKGRATLTSDKSASTAYMELSSLRSEDTAVYYCANYYGSSLSMDYWGQGTLVTVSSASTKGPSVFPLAPSSKSTSGGTAALGCLVKDYFPEPVTVSWNSGALTSGVHTFPAVLQSSGLYSLSSVVTVPSSSLGTQTYICNVNHKPSNTKVDKKVEPKSCDKTHTCPPCPAPEFEGGPSVFLFPPKPKDTLMISRTPEVTCVVVDVSHEDPEVKFNWYVDGVEVHNAKTKPREEQYNSTYRVVSVLTVLHQDWLNGKEYKCKVSNKALPASIEKTISKAKGQPREPQVYTLPPCRDELTKNQVSLWCLVKGFYPSDIAVEWESNGQPENNYKTTPPVLDSDGSFFLYSKLTVDKSRWQQGNVFSCSVMHEALHNHYTQKSLSLSPG
light: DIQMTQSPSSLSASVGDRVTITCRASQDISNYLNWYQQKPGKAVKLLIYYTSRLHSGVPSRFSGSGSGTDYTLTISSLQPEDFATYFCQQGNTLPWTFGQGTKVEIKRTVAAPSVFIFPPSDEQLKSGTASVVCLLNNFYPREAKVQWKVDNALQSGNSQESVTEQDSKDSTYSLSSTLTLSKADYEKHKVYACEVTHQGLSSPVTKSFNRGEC
B3: in experiment [2], the binding result is reported as “binds”.

B4: mono-mut23-12H3_V6 (Fc fusion)
chain: IWELKKDVYVVELDWYPDAPGEMVVLTCDTPEEDGITWTLDQSSEVLGSGKTLTIQVKEFGDAGQYTCHKGGEVLSHSLLLLHKKEDGIWSTDILKDQKEPKNKTFLRCEAKNYSGRFTCWWLTTISTDLTFSVKSSRGSSDPQGVTCGAATLSAERVRGDNKEYEYSVECQEDSACPAAEESLPIEVMVDAVHKLKYENYTSSFFIRDIIKPDPPKNLQLKPLKNSRQVEVSWEYPDTWSTPHSYFSLTFSVQVQGKSKREKKDRVFTDKTSATVICRKNASISVRAQDRYYSSSWSEWASVPCSGGGGSGGGGSGGGGSGGGGSGGGGSRNLPVATPDPGMFPCLHHSQNLLRAVSNMLQKARQTLEFSPCTSEEIDHEDITKDKTSTVEACLPLELTKNESCLNSRETSFITNGSCLASRKTSFMMALCLSSIYEDLKMYQVEFKTMNAKLLMDPKRQIFLDQNMLAVIDELMQALNFNSETVPQKSSLEEPDFYKTAIKLCILLHAFRIRAVTIDRVMSYLNASGGGGSGGGGSEPKSSDKTHTCPPCPAPEFEGGPSVFLFPPKPKDTLMISRTPEVTCVVVDVSHEDPEVKFNWYVDGVEVHNAKTKPREEQYNSTYRVVSVLTVLHQDWLNGKEYKCKVSNKALPASIEKTISKAKGQPREPQVCTLPPSRDELTKNQVSLSCAVKGFYPSDIAVEWESNGQPENNYKTTPPVLDSDGSFFLVSKLTVDKSRWQQGNVFSCSVMHEALHNHYTQKSLSLSPG
heavy: QVQLVQSGAEVKKPGSSVKVSCKASGYTFKDYTMHWVRQAPGQGLEWIGGIYPNNGGSTYNQNFKDRVTLTADKSTSTAYMELSSLRSEDTAVYYCARLGYHGPHLDFDVWGQGTTVTVSSASTKGPSVFPLAPSSKSTSGGTAALGCLVKDYFPEPVTVSWNSGALTSGVHTFPAVLQSSGLYSLSSVVTVPSSSLGTQTYICNVNHKPSNTKVDKKVEPKSCDKTHTCPPCPAPEFEGGPSVFLFPPKPKDTLMISRTPEVTCVVVDVSHEDPEVKFNWYVDGVEVHNAKTKPREEQYNSTYRVVSVLTVLHQDWLNGKEYKCKVSNKALPASIEKTISKAKGQPREPQVYTLPPCRDELTKNQVSLWCLVKGFYPSDIAVEWESNGQPENNYKTTPPVLDSDGSFFLYSKLTVDKSRWQQGNVFSCSVMHEALHNHYTQKSLSLSPG
light: DIQMTQSPSSLSASVGDRVTITCKASQDVGAAVAWYQQKPGKAPKLLIYWASTRHTGVPSRFSGSGSGTDFTLTISSLQPEDFATYYCQQYINYPLTFGGGTKVEIKRTVAAPSVFIFPPSDEQLKSGTASVVCLLNNFYPREAKVQWKVDNALQSGNSQESVTEQDSKDSTYSLSSTLTLSKADYEKHKVYACEVTHQGLSSPVTKSFNRGEC
As for B4, a half-maximal response in experiment [2] (EC50) required 645 nM.

B5: mono-mut23-12H3_V5 (Fc fusion)
chain: IWELKKDVYVVELDWYPDAPGEMVVLTCDTPEEDGITWTLDQSSEVLGSGKTLTIQVKEFGDAGQYTCHKGGEVLSHSLLLLHKKEDGIWSTDILKDQKEPKNKTFLRCEAKNYSGRFTCWWLTTISTDLTFSVKSSRGSSDPQGVTCGAATLSAERVRGDNKEYEYSVECQEDSACPAAEESLPIEVMVDAVHKLKYENYTSSFFIRDIIKPDPPKNLQLKPLKNSRQVEVSWEYPDTWSTPHSYFSLTFSVQVQGKSKREKKDRVFTDKTSATVICRKNASISVRAQDRYYSSSWSEWASVPCSGGGGSGGGGSGGGGSGGGGSGGGGSRNLPVATPDPGMFPCLHHSQNLLRAVSNMLQKARQTLEFSPCTSEEIDHEDITKDKTSTVEACLPLELTKNESCLNSRETSFITNGSCLASRKTSFMMALCLSSIYEDLKMYQVEFKTMNAKLLMDPKRQIFLDQNMLAVIDELMQALNFNSETVPQKSSLEEPDFYKTAIKLCILLHAFRIRAVTIDRVMSYLNASGGGGSGGGGSEPKSSDKTHTCPPCPAPEFEGGPSVFLFPPKPKDTLMISRTPEVTCVVVDVSHEDPEVKFNWYVDGVEVHNAKTKPREEQYNSTYRVVSVLTVLHQDWLNGKEYKCKVSNKALPASIEKTISKAKGQPREPQVCTLPPSRDELTKNQVSLSCAVKGFYPSDIAVEWESNGQPENNYKTTPPVLDSDGSFFLVSKLTVDKSRWQQGNVFSCSVMHEALHNHYTQKSLSLSPG
heavy: QVQLVQSGAEVKKPGSSVKVSCKASGYTFKDYTMHWVRQAPGQGLEWIGGIYPNNAGSTYNQNFKDRVTLTADKSTSTAYMELSSLRSEDTAVYYCARMGYHGPHLDFDVWGQGTTVTVSSASTKGPSVFPLAPSSKSTSGGTAALGCLVKDYFPEPVTVSWNSGALTSGVHTFPAVLQSSGLYSLSSVVTVPSSSLGTQTYICNVNHKPSNTKVDKKVEPKSCDKTHTCPPCPAPEFEGGPSVFLFPPKPKDTLMISRTPEVTCVVVDVSHEDPEVKFNWYVDGVEVHNAKTKPREEQYNSTYRVVSVLTVLHQDWLNGKEYKCKVSNKALPASIEKTISKAKGQPREPQVYTLPPCRDELTKNQVSLWCLVKGFYPSDIAVEWESNGQPENNYKTTPPVLDSDGSFFLYSKLTVDKSRWQQGNVFSCSVMHEALHNHYTQKSLSLSPG
light: DIQMTQSPSSLSASVGDRVTITCKASQDVGAAVAWYQQKPGKAPKLLIYWASTRHTGVPSRFSGSGSGTDFTLTISSLQPEDFATYYCQQYINYPLTFGGGTKVEIKRTVAAPSVFIFPPSDEQLKSGTASVVCLLNNFYPREAKVQWKVDNALQSGNSQESVTEQDSKDSTYSLSSTLTLSKADYEKHKVYACEVTHQGLSSPVTKSFNRGEC
In the case of B5, a half-maximal response in experiment [2] (EC50) required 113 nM.

B6: commercially available recombinant mouse IL-12 (rmIL-12, BioLegend) (ligand)
chain 1: RVIPVSGPARCLSQSRNLLKTTDDMVKTAREKLKHYSCTAEDIDHEDITRDQTSTLKTCLPLELHKNESCLATRETSSTTRGSCLPPQKTSLMMTLCLGSIYEDLKMYQTEFQAINAALQNHNHQQIILDKGMLVAIDELMQSLNHNGETLRQKPPVGEADPYRVKMKLCILLHAFSTRVVTINRVMGYLSSA
chain 2: MWELEKDVYVVEVDWTPDAPGETVNLTCDTPEEDDITWTSDQRHGVIGSGKTLTITVKEFLDAGQYTCHKGGETLSHSHLLLHKKENGIWSTEILKNFKNKTFLKCEAPNYSGRFTCSWLVQRNMDLKFNIKSSSSSPDSRAVTCGMASLSAEKVTLDQRDYEKYSVSCQEDVTCPTAEETLPIELALEARQQNKYENYSTSFFIRDIIKPDPPKNLQMKPLKNSQVEVSWEYPDSWSTPHSYFSLKFFVRIQRKKEKMKETEEGCNQKGAFLVEKTSTEVQCKGGNVCVQAQDRYYNSSCSKWACVPCRVRS
As to B6, the “IFNγ in the supernatant of activated/expanded human T cells (AlphaLISA), EC50” value in experiment [1] came to 0.0193 nM.

These data come from patent US20250236653A1 (ONKO INNATE, published 2025).
